From patent US20190284241A1 (Affibody, published 2019)
Where two headings read alike, the source gives them in different places. One block for each molecule: values may come before it.

What was measured:
[1] = molecular target: human FcRn-eGFP on transduced HeLa cells (human) (UniProt P55899); experiment: flow cytometry, hFcRn-eGFP HeLa cells, blocks Alexa647-hIgG, pH 6.0
[2] = molecular target: human FcRn-eGFP on transduced HeLa cells (human) (UniProt P55899); experiment: as above; remark: listed apart in the source
[3] = molecular target: T1, human FcRn (Biorbyt, cat. no. orb84388) (human, UniProt P55899 24-297; P61769 21-119, limits assumed); experiment: ELISA screening; periplasm with the ABD moiety only captured on anti-ABD antibody, biotinylated hFcRn at 2 nM
T1 construct: Bought protein; also called hFcRn
Method: After washing as described above, 50 μl ImmunoPure TMB substrate (Thermo Scientific, cat. no. 34021) was added to the wells and the plates were treated according to the manufacturer's recommendations.

[4] = molecular target: T2, human FcRn (Biorbyt, cat. no. orb84388) (human, UniProt P55899 24-297; P61769 21-119, limits assumed); experiment: SPR Biacore, hFcRn immobilised; sample after 2 weeks at 37 °C (2 w)
T2 construct: Bought soluble protein; not biotinylated on Biacore chips and ELISA coat; also called hFcRn
Method: (§1) The His₆-tagged Z variants were further assessed in terms of preserved binding capacity to FcRn after introduction of alterations in the scaffold, as well as after having been subjected to the stability test, i.e. incubated at 37° C. for 2 weeks. Comparative kinetic constants (kₒₙ and koff) and affinities (KD) were determined using a Biacore 2000 instrument. The target protein human FcRn (Biorbyt, cat. no. orb 84388) was immobilized on the carboxylated dextran layer surface of a CM5 chip (GE Healthcare). The immobilization was performed using amine coupling chemistry according to the manufacturer's protocol and using HBS-EP as running buffer. One flow cell surface on the chip was activated and deactivated for use as blank during analyte injections. The immobilization level of hFcRn on the surface was approximately 750 RU. […] Regeneration by three pulses of HBS-EP followed by 10 min equilibration in running buffer was applied after each analyte injection. Kinetic constants were calculated from the sensorgrams using the Langmuir 1:1 model of the BiaEvaluation software 4.1 (GE Healthcare). Curves of the blank surface were subtracted from the curves of the ligand surfaces and the data from the buffer cycles were subtracted from the data of the test-sample cycles to correct for any drift in signal.

[5] = molecular target: T2, human FcRn (Biorbyt, cat. no. orb84388); experiment: SPR Biacore, hFcRn immobilised; sample before the stability test (0)
Method: as §1

IC50 [1]: 150 nM
IC50 [2]: 170 nM
Molecule: Intravenous immunoglobulin (IVIg; Octagam, Octapharma) (antibody)

IC50 [2]: 120 nM
Molecule: Subcutaneous immunoglobulin (SCIg; Gammanorm, Octapharma) (antibody)

binding result [3]: no binding (tested: 2 nM)
Molecule: LAEAKVLANRELDKYGVSDYYKNLINNAKTVEGVKALIDEILAALP (other, Streptococcus strain G148, UniProt P19909 254-299, looked up, domain: GA3) [ABD moiety only (periplasm, negative control)]

Kd [4]: 6.3 nM
koff [4]: 0.00809 s⁻¹
kon [4]: 1.28e+06 M⁻¹ s⁻¹
Kd [5]: 5.5 nM
koff [5]: 0.01 s⁻¹
kon [5]: 1.82e+06 M⁻¹ s⁻¹
B1: His6-tagged Z17348 (designed binder)
chain: MGSSHHHHHHLQAEAKYAKEQDAAAHEIRWLPNLTFDQRVAFIHKLARQPEQSSELLSEAKKLSESQAPK
